Test results from PMC2133087 (The Journal of Cell Biology, 1998).

Target: actin filament (F-actin) polymerized from G-actin purified from rabbit skeletal muscle (rabbit, UniProt P68135 1-377)
Experiment: co-sedimentation

| Binder | stoichiometry N |
| --- | --- |
| full-length His6-b-nexilin (natural protein) MNDVSQKAEILLSSSKPVPKSYVPKLGKGDVKDKFEAMQRAREERNQRRSRDEKQRRKEQYIREREWNRRKQEIKDMLASDEEEEPSKVEKAYVPKLTGTVKGKFDEMEKHRQEEQRKRTEEERKRRIEQDLLEKRKMQRELAKRAEQEGDDSLLITVVPAKSYRAAANRKDPEDLDREHRNGRVSQEEEKTRHEEECRALKEAKCLSLVMDDETEAKKESRFPGKLKSTFEELERQRQENRKKQAEEEARRRLEEERRAFEEARRNMVNEEDESQDTETVFKEYRPGKLRLSFEEIERQRREEEKRKAEEEARRRMEEEKKAFAEARRSMVLDDDSPEIYKAVSQESLTPGKLEINFEQLLRQKMEEERRRTEEERRQKLEMEKQEFEQLRQEMGKEEEENESFGLSREYEELIKLKRSGSIQAKNLKSKFEKIGQLSEKEVQKKIEEERAKRRAIDLEIKEREAENFHEDDDVDVKPAKKSESPFTHKVNMKARFEQMAKARQEEEQRRIEEQKLLRMQFEQKEIDAALQKKREDDEEEEGSIVNGSTTEDEEQTRSGAPWFKKPLRNTSVVDSEPVRFTVKVTGEPKPEVTWWFEGELLQDGEDYQYIERGETYCLYLPETFPEDGGEYMCKAVNSKGSAASTCILTIEMDDY | ~9 actin molecules per His6-b-nexilin molecule |
| full-length His6-s-nexilin (natural protein) MNDVSQKAEIKDMLASDEEEEPSKVEKAYVPKLTGTVKGKFDEMEKHRQEEQRKRTEEERKRRIEQDLLEKRKMQRELAKRAEQIEDINNTGTESASEEGDDSLLITVVPAKSYRAAANRKDPEDLDREHRNGRVSQEEEKTRHEEECRALKEAKCLSLVMDDETEAKKESRFPGKLKSTFEELERQRQENRKKQAEEEARRRLEEERRAFEEARRNMVNEEDESQDTETVFKEYRPGKLRLSFEEIERQRREEEKRKAEEEARRRMEEEKKAFAEARRSMVLDDDSPEIYKAVSQESLTPGKLEINFEQLLRQKMEEERRRTEEERRQKLEMEKQEFEQLRQEMGKEEEENESFGLSREYEELIKLKRSGSIQAKNLKSKFEKIGQLSEKEVQKKIEEERAKRRAIDLEIKEREAENFHEDDDVDVKPAKKSESPFTHKVNMKARFEQMAKARQEEEQRRIEEQKLLRMQFEQKEIDAALQKKREDDEEEEGSIVNGSTTEDEEQTRSGAPWFKKPLRNTSVVDSEPVRFTVKVTGEPKPEVTWWFEGELLQDGEDYQYIERGETYCLYLPETFPEDGGEYMCKAVNSKGSAASTCILTIEMDDY | ~10 actin molecules per His6-s-nexilin molecule |
